Experimental data: publication PMC11968058
Numbering of substitutions follows the chain as printed. Names may count otherwise.

B1: AtCOMT (Arabidopsis thaliana) (protein)
chain: MGSTAETQLTPVQVTDDEAALFAMQLASASVLPMALKSALELDLLEIMAKNGSPMSPTEIASKLPTKNPEAPVMLDRILRLLTSYSVLTCSNRKLSGDGVERIYGLGPVCKYLTKNEDGVSIAALCLMNQDKVLMESWYHLKDAILDGGIPFNKAYGMSAFEYHGTDPRFNKVFNNGMSNHSTITMKKILETYKGFEGLTSLVDVGGGIGATLKMIVSKYPNLKGINFDLPHVIEDAPSHPGIEHVGGDMFVSVPKGDAIFMKWICHDWSDEHCVKFLKNCYESLPEDGKVILAECILPETPDSSLSTKQVVHVDCIMLAHNPGGKERTEKEFEALAKASGFKGIKVVCDAFGVNLIELLKKL
B2: AtCOMT (Arabidopsis thaliana; H313A) (protein)
chain: B1 chain with H313A
B3: AtCOMT (Arabidopsis thaliana; F174L) (protein)
chain: B1 chain with F174L
B4: AtCOMT (Arabidopsis thaliana; H313A/N129V) (protein)
chain: B1 chain with N129V, H313A
B5: AtCOMT (Arabidopsis thaliana; F174L/H313A/N129V) (protein)
chain: B1 chain with N129V, F174L, H313A
B6: AtCOMT (Arabidopsis thaliana; N129V) (protein)
chain: B1 chain with N129V

Substrate: O=C(O)/C=C/c1ccc(O)c(O)c1
Test: purified protein
Conditions: co-substrate SAM
[1] = optimal conditions (30°C, pH 8.0)
[2] = optimal conditions (35°C, pH 8.0)

Protein | kcat (optimal conditions) [s⁻¹] | kcat/Km (optimal conditions) [M⁻¹ s⁻¹] | also measured
B1 |  |  | kcat [1]: 0.327 s⁻¹; kcat/Km [1]: 482 M⁻¹ s⁻¹
B2 | 0.4 | 606 | 
B3 | 0.369 | 1120 | 
B4 | 0.498 | 1390 | 
B5 |  |  | kcat [2]: 0.475 s⁻¹; kcat/Km [2]: 2020 M⁻¹ s⁻¹
B6 | 0.458 | 828 | 
